Experimental data published in the supplement of paper PMC6757056.
± gives the standard deviation of the averaged measurements.

B1: library; a variant is named by its letters at N, in order (parent)
chain: GCUGUCACCGGUGCUUGGUACGUUAUAUUCAGCCGGUCUGAUGAGUCUNNNNNNAGACGAAACAGC

Legend:
(6R,S)-folinic acid [1] = variants of: B1; test: normalized RNA/DNA level without ligand (relative to sTRSVctl = 100) (log10 (% of sTRSVctl)); HEK293T overexpressing SLC46A1; higher = less ribozyme self-cleavage, higher mRNA level; conditions: without (6R,S)-folinic acid; ligand present: no
Summary of the method: (§1)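 Ribozyme switch library plasmids with mCherry reporters (eGFP in certain ligand experiments) went into HEK293T cells at 4 µg per 6-well well. Where ligand was used, it was applied 1 h before transfection, and total RNA was extracted with EDTA 72 h later for reverse transcription, amplification, barcoding and sequencing. RNA level is the RNA-to-DNA read ratio normalized to a spiked-in non-cleaving sequence or to the leading sequences, then scaled and log-transformed. Scaling was ×100 with log10, the leading set comprised 25 sequences, and the cutoff was ≥100 DNA reads.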

(6R,S)-folinic acid [2] = variants of: B1; test: normalized RNA/DNA level with ligand (relative to sTRSVctl = 100) (log10 (% of sTRSVctl)); HEK293T overexpressing SLC46A1; ligand concentration (+) RNA-Seq: 6 mM; higher = less ribozyme self-cleavage, higher mRNA level; conditions: with (6R,S)-folinic acid; ligand present: yes
Summary of the method: as §1

Variant	normalized RNA/DNA level without ligand (log10) ((6R,S)-folinic acid [1])	normalized RNA/DNA level with ligand (log10) ((6R,S)-folinic acid [2])
UUGCUU	2.016 ± 0.013	2.04 ± 0.04
UUGCUC	2.046 ± 0.01	2.02 ± 0.052
UUGCUG	1.978 ± 0.004	2.01 ± 0.05
GUGGCU	2.047 ± 0.0085	2.06 ± 0.028
GUGGCG	1.993 ± 0.0028	2.015 ± 0.0038
AUGGCU	1.989 ± 0.011	2.02 ± 0.031
AUGGCC	2.063 ± 0.0035	2.04 ± 0.05
AUGGCA	1.9865 ± 2.8e-05	2 ± 0.046
CUCUCA	2.05 ± 0.015	2.02 ± 0.057
CUCUCG	2.05 ± 0.014	2.014 ± 0.0035
CUCUCC	2.1 ± 0.025	2.07 ± 0.022
CUCUCU	2.025 ± 0.017	2.019 ± 0.0069
GUGACG	1.95 ± 0.017	2 ± 0.032
GUGACU	2.029 ± 0.0025	2.04 ± 0.041
GUGAUG	1.908 ± 0.015	1.99 ± 0.035
GUGAUU	2.01 ± 0.024	2.02 ± 0.022
GUGAUC	2.03 ± 0.021	2.036 ± 0.02
CUGUGC	2.01 ± 0.05	2.02 ± 0.028
CUGUGG	1.96 ± 0.0026	2.059 ± 0.016
CUGUGU	1.997 ± 0.017	2.011 ± 0.004
CUGUGA	2.028 ± 0.0096	2.04 ± 0.035
UUGUCA	1.976 ± 0.015	2.042 ± 0.0095
UUGUCU	2.053 ± 0.0052	2.09 ± 0.022

Variant	normalized RNA/DNA level without ligand (log10) ((6R,S)-folinic acid [1])	normalized RNA/DNA level with ligand (log10) ((6R,S)-folinic acid [2])
UUGUCG	1.94 ± 0.032	2.03 ± 0.034
UUGUCC	2.008 ± 0.0064	2.045 ± 0.02
CUGACG	2 ± 0.006	2.046 ± 0.02
CUGACU	2.028 ± 0.004	2 ± 0.023
CUGACA	1.996 ± 0.01	2.03 ± 0.022
CUGACC	2.05 ± 0.017	2.01 ± 0.033
UUGCCA	2.024 ± 0.013	2.042 ± 0.02
UUGCCC	2.04 ± 0.031	2.03 ± 0.036
UUGCCU	2.07 ± 0.028	2.07 ± 0.024
UUGCCG	1.974 ± 0.0045	2.03 ± 0.038
AUGUUC	2.0332 ± 0.0018	2.01 ± 0.021
AUGUUA	1.938 ± 1.9e-05	1.98 ± 0.057
AUGUUU	1.976 ± 0.015	2.004 ± 0.011
AUGUUG	1.889 ± 0.01	2.017 ± 0.019
CUGAUG	2.014 ± 0.013	2.013 ± 0.014
CUGAUA	1.9701 ± 0.00086	2.02 ± 0.048
CUGAUU	2.015 ± 0.007	2.05 ± 0.052
CUGAUC	2.0695 ± 0.0006	2.038 ± 0.013
AUGAAC	1.95 ± 0.004	1.97 ± 0.048
GUCUGU	2.016 ± 0.0056	2.06 ± 0.027
GUCUGA	2.05 ± 0.021	2.05 ± 0.038
CUGUUC	2.049 ± 0.016	2.03 ± 0.024
CUGUUA	1.994 ± 0.0099	2.04 ± 0.03

Variant	normalized RNA/DNA level without ligand (log10) ((6R,S)-folinic acid [1])	normalized RNA/DNA level with ligand (log10) ((6R,S)-folinic acid [2])
CUGUUG	2.04 ± 0.035	2.03 ± 0.027
CUGUUU	2.022 ± 0.0036	2.06 ± 0.041
UUGCAC	2.008 ± 0.015	2.02 ± 0.026
UUGCAU	1.975 ± 0.0029	2.01 ± 0.043
UUGCAA	1.96 ± 0.0066	1.987 ± 0.0035
AUCUGU	2.004 ± 0.0032	2.06 ± 0.056
AUCUGA	2.021 ± 0.016	2.02 ± 0.058
AUCUGC	2.06 ± 0.028	2.05 ± 0.052
AUCUCU	2.02 ± 0.023	2.021 ± 0.0047
AUCUCA	2.02 ± 0.022	2.018 ± 0.0082
AUCUCC	2.04 ± 0.0049	2.03 ± 0.064
GUGCGG	1.968 ± 0.014	2.0481 ± 0.00061
GUGCGC	1.965 ± 0.01	2.01 ± 0.057
GUGAAC	1.908 ± 0.0094	2.012 ± 0.0064
UUGUGU	2.03 ± 0.011	2.05 ± 0.031
UUGUGA	1.96 ± 0.0028	2.04 ± 0.031
UUGUGC	2.018 ± 0.0046	2.053 ± 0.02
UUGUGG	1.888 ± 0.0042	2.06 ± 0.044
GUGGGU	1.98 ± 0.022	2 ± 0.045
GUGGGG	1.94 ± 0.026	2.03 ± 0.028
CUCGUU	2.0737 ± 0.0011	2.0492 ± 0.0012
CUGCCG	2.038 ± 0.012	2.075 ± 0.0058
CUGCCU	2.034 ± 0.011	2.003 ± 0.006

Variant	normalized RNA/DNA level without ligand (log10) ((6R,S)-folinic acid [1])	normalized RNA/DNA level with ligand (log10) ((6R,S)-folinic acid [2])
CUGCCA	2.05 ± 0.027	2.04 ± 0.033
CUCUGG	2.04 ± 0.021	2.04 ± 0.028
CUCUGC	2.02 ± 0.025	2.03 ± 0.027
CUCUGU	2.0266 ± 0.0016	2.037 ± 0.0081
CUCUGA	2.067 ± 0.012	2.046 ± 0.0084
AUGACC	2.046 ± 0.0045	2.024 ± 0.014
AUGGAU	1.889 ± 0.0038	2.01 ± 0.033
GUGGAU	1.9394 ± 0.0013	2.01 ± 0.035
GUGGAA	1.915 ± 0.0022	2.01 ± 0.048
GUGGAG	1.86 ± 0.027	2 ± 0.041
GUGUGG	1.908 ± 0.0095	2.03 ± 0.048
AUGUCG	1.93 ± 0.0088	1.99 ± 0.027
AUGUCU	1.993 ± 0.017	1.99 ± 0.02
AUGUCA	1.979 ± 0.0033	2.01 ± 0.016
AUGUCC	2.04 ± 0.026	2.0107 ± 0.0015
GUCUUC	2.073 ± 0.0035	2.027 ± 0.0036
GUCUUU	2.047 ± 0.0022	2.04 ± 0.064
GUCUUA	2.03 ± 0.025	2.034 ± 0.013
UUGGGC	2.036 ± 0.0078	2.037 ± 0.0067
UUGGGA	1.881 ± 0.0033	2.03 ± 0.039
AUGCCA	2.011 ± 0.0049	2.011 ± 0.01
AUGCCC	2.037 ± 0.016	2.02 ± 0.041
AUGCCG	1.979 ± 0.0032	2 ± 0.023

Variant	normalized RNA/DNA level without ligand (log10) ((6R,S)-folinic acid [1])	normalized RNA/DNA level with ligand (log10) ((6R,S)-folinic acid [2])
AUGCCU	2.011 ± 0.0046	2.015 ± 0.0068
AUGUGA	1.944 ± 0.014	2.014 ± 0.019
AUGUGC	1.97 ± 0.021	1.981 ± 0.018
AUGUGU	1.83 ± 0.032	1.97 ± 0.047
GUCGUU	2.029 ± 0.018	2.02 ± 0.056
UUCUGA	2.016 ± 0.012	2.032 ± 0.0073
UUCUGU	2.03 ± 0.023	2.047 ± 0.0083
UUCGUU	2.009 ± 0.013	1.98 ± 0.042
UUCUUA	2.032 ± 0.02	2.02 ± 0.081
UUCUUU	2.047 ± 0.0094	2.04 ± 0.035
UUCUUC	2.05 ± 0.028	1.996 ± 0.012
UUCUUG	1.914 ± 0.0095	2.02 ± 0.023
CUGCAC	2.037 ± 0.0035	2.015 ± 0.014
CUGCAA	2.037 ± 0.02	2.05 ± 0.025
CUGCAU	1.9723 ± 0.001	1.99 ± 0.044
CUGCGC	2.06 ± 0.0038	2.009 ± 0.019
CUGCGA	2.053 ± 0.0059	2.06 ± 0.037
CUGCGU	2.059 ± 0.011	2.06 ± 0.039
CUGCGG	2.052 ± 0.0072	2.066 ± 0.0066
GUCUAC	2.004 ± 0.0042	2.02 ± 0.027
GUCUAA	1.978 ± 0.0082	1.991 ± 0.014
GUCUAG	1.97 ± 0.028	2.0363 ± 0.0013
CUGGUU	1.97 ± 0.04	1.99 ± 0.046
